{"source": "patent US20170248602A1", "binders": {"B1": {"name": "α-SNAP-25 mouse monoclonal antibody 1D3B8 (antibody, V domains shown)", "VH": "QVKLQESGAELVKPGASVKISCKASGYIFTDHALHWVRQKPEQGLEWIGYIFPGNGNIEYNEKFKGKATLTADKSSSTAYMQLNSLTSGDSAMYFCKKMDYWGQGTTVTVSS", "VL": "DVLMTQTPLSLPVSLGDQASISCRSSQSIVHSNGNTYLEWYLQKPGQSPKLLIYKVSNRFSGVPDRFSGSGSGTDFTLKISRVEAEDLGVYYCFQGSHVPPTFGAGTKLELKR"}, "B2": {"name": "α-SNAP-25 mouse monoclonal antibody 2C9B10 (antibody, V domains shown)", "VH": "B1 VH with I28T, A33S, L34I, R38K, E42G, I51L, I58F, Q82H, G89E, M93V", "VL": "DIQMTQSPASLSASVGETVTITCRTTENIYSYFVWSQQRQGKSPQLRVYNAKSLAEGVPSSFNVSVSGTQFSLKINSLQPEDFGTYHCQHHYGTPYTFGGGTRLEIRR"}, "B3": {"name": "α-SNAP-25 mouse monoclonal antibody 2E2A6 (antibody, V domains shown)", "VH": "QVQLQQSDAELVKPGASVKISCRASGYTFTDHSIHWVKQQPGQGLEWIGYIFPGNGNIEYNDKFKGKATLTADKSSGTAYMQLNSLTSEDSAVYFCKRMGYWGQGTSVTVSS", "VL": "DVLMTQTPLTLSVTIGQPASISCKSSQSLLYTNGKTYLTWLFQRPGQSPKRLIYLVSELDSGVPDRFSGSGSGTDFTLEITRVEAEDLGVYYCLQSAHFPFTFGSGTKLEIKR"}, "B4": {"name": "α-SNAP-25 mouse monoclonal antibody 3C1A5 (antibody, V domains shown)", "VH": "QVKLQESGAELVKPGASVKISCKASGYTFTDHSIHWVKQKPGQGLEWIGYLFPGNGNFEYNEKFKGKATLTADKSSSTVYMYLNSLTSEDSAVYFCKRMGYWGQGTTVTVSS", "VL": "B3 VL with L3V, Y31N, F42I, K50Q, E58K, E79K, T81S, A97S"}}, "key": {"[1]": {"molecular_target": "T1, SNAP-25 peptide comprising amino acids 134-197 of SEQ ID NO:5 (human)", "test": "SPR (BIAcore 3000), peptide on CM5 chip, 1:1 fit"}, "[2]": {"molecular_target": "T1, SNAP-25 peptide comprising amino acids …"}}, "note": "Substitutions are numbered along the chain they refer to. Like-named read-outs stand apart in the source and are kept apart here.", "data": [{"binder": "B1", "values": [{"measurement": "Kd", "setting": "[1]", "value": 0.05, "unit": "nM"}, {"measurement": "koff", "setting": "[1]", "value": "5.78e-05", "unit": "s⁻¹"}, {"measurement": "kon", "setting": "[1]", "value": "1.06e+06", "unit": "M⁻¹ s⁻¹"}]}, {"binder": "B2", "values": [{"measurement": "Kd", "setting": "[1]", "value": 27.1, "unit": "nM"}, {"measurement": "koff", "setting": "[1]", "value": 0.000311, "unit": "s⁻¹"}, {"measurement": "kon", "setting": "[1]", "value": 11500, "unit": "M⁻¹ s⁻¹"}]}, {"binder": "B3", "values": [{"measurement": "Kd", "setting": "[2]", "value": 0.405, "unit": "nM"}, {"measurement": "koff", "setting": "[2]", "value": "6.74e-05", "unit": "s⁻¹"}, {"measurement": "kon", "setting": "[2]", "value": 166000, "unit": "M⁻¹ s⁻¹"}, {"measurement": "Kd", "setting": "[1]", "value": 0.09, "unit": "nM"}, {"measurement": "koff", "setting": "[1]", "value": 0.000153, "unit": "s⁻¹"}, {"measurement": "kon", "setting": "[1]", "value": "1.7e+06", "unit": "M⁻¹ s⁻¹"}]}, {"binder": "B4", "values": [{"measurement": "Kd", "setting": "[1]", "value": 1.33, "unit": "nM"}, {"measurement": "koff", "setting": "[1]", "value": 0.000288, "unit": "s⁻¹"}, {"measurement": "kon", "setting": "[1]", "value": 217000, "unit": "M⁻¹ s⁻¹"}]}]}
